The results in this text go back to doi:10.1101/2024.07.08.602551.

For test [1], the target named is human Twisted gastrulation (residues Cys26-Phe223) (human) (UniProt Q9GZX9). As to the kind of experiment: SPR.
Test [2] concerns the target human Twisted gastrulation Leu107Ala (human) (UniProt Q9GZX9). As to the kind of experiment: SPR.

human Twisted gastrulation Leu107Ala (human), sequence (Q9GZX9 26-223 L107A): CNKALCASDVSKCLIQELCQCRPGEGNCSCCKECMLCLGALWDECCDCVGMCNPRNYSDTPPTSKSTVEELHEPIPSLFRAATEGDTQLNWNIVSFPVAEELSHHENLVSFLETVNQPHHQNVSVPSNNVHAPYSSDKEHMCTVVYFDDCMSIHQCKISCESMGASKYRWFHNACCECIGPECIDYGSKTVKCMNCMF
human Twisted gastrulation (residues Cys26-Phe223) (human), sequence (Q9GZX9 26-223): as the sequence (Q9GZX9 26-223 L107A) above, with A82L counted along it

In the case of “human CHRDL2 (Arg24-Thr429) (natural protein)”, the figures for the dissociation constant (Kd) in test [1] and in test [2] were 5 nM and 11 nM, respectively.
